Article PMC12331936, “Structural Insights into the Protein Mannosyltransferase from Mycobacterium tuberculosis reveal a WW-Domain-Like Protein Motif in Bacteria” (Communications Biology, 2025)
Residue numbers refer to the chain shown, from its start. In names and notes the source's numbering stands.

B1: MtPMT: M. tuberculosis protein-O-mannosyltransferase, wild type (protein, UniProt P9WN05 1-522, looked up)
Polyprenol-phosphate-mannose-- …: MTARPPESCVLAKDRPEEPVVPVVSPGPLVPVADFGPLDRLRGWIVTGLITLLATVTRFLNLGSLTDAGTPIFDEKHYAPQAWQVLNNHGVEDNPGYGLVVHPPVGKQLIAIGEAIFGYNGFGWRFTGALLGVVLVALVVRIVRRISRSTLVGAIAGVLLICDGVSFVTARTALLDGFLTFFVVAAFGALIVDRDQVRERMHIALLAGRSAATVWGPRVGVRWWRFGAGVLLGLACATKWSGVYFVLFFGAMALAFDVAARRQYQVQRPWLGTVRRDVLPSGYALGLIPFAVYLATYAPWFASETAIDRHAVGQAVGRNSVVPLPDAVRSLWHYTAKAFHFHAGLTNSAGNYHPWESKPWTWPMSLRPVLYAIDQQDVAGCGAQSCVKAEMLVGTPAMWWLAVPVLAYAGWRMFVRRDWRYAVVLVGYCAGWLPWFADIDRQMYFFYAATMAPFLVMGISLVLGDILYHPGQGSERRTLGLIVVCCYVALVVTNFAWLYPVLTGLPISQQTWNLEIWLPSWR
B2: E74D75: di-substitution of D74E75 with the reversed doublet (protein, UniProt P9WN05 1-522, looked up, variant D74E E75D)
Polyprenol-phosphate-mannose-- …: B1 Polyprenol-phosphate-mannose-- … with D74E, E75D
B3: S365T (protein, UniProt P9WN05 1-522, looked up, variant S365T)
Polyprenol-phosphate-mannose-- …: B1 Polyprenol-phosphate-mannose-- … with S365T
B4: L392A (protein, UniProt P9WN05 1-522, looked up, variant L392A)
Polyprenol-phosphate-mannose-- …: B1 Polyprenol-phosphate-mannose-- … with L392A
B5: D176E (protein, UniProt P9WN05 1-522, looked up, variant D176E)
Polyprenol-phosphate-mannose-- …: B1 Polyprenol-phosphate-mannose-- … with D176E
B6: W362A (protein, UniProt P9WN05 1-522, looked up, variant W362A)
Polyprenol-phosphate-mannose-- …: B1 Polyprenol-phosphate-mannose-- … with W362A
B7: phenylalanine was substituted for Y444: MtPMT with phenylalanine substituted for Y444 (protein, UniProt P9WN05 1-522, looked up, variant Y444F)
Polyprenol-phosphate-mannose-- …: B1 Polyprenol-phosphate-mannose-- … with Y444F
B8: Y371A-L392A (protein, UniProt P9WN05 1-522, looked up, variant Y371A L392A)
Polyprenol-phosphate-mannose-- …: B1 Polyprenol-phosphate-mannose-- … with Y371A, L392A
B9: R441L (protein, UniProt P9WN05 1-522, looked up, variant R441L)
Polyprenol-phosphate-mannose-- …: B1 Polyprenol-phosphate-mannose-- … with R441L
B10: D74A (protein, UniProt P9WN05 1-522, looked up, variant D74A)
Polyprenol-phosphate-mannose-- …: B1 Polyprenol-phosphate-mannose-- … with D74A
B11: R441A (protein, UniProt P9WN05 1-522, looked up, variant R441A)
Polyprenol-phosphate-mannose-- …: B1 Polyprenol-phosphate-mannose-- … with R441A
B12: D74E (protein, UniProt P9WN05 1-522, looked up, variant D74E)
Polyprenol-phosphate-mannose-- …: B1 Polyprenol-phosphate-mannose-- … with D74E

Legend:
MtPMT [1] = details: in vivo (M. smegmatis cell assay); cited from earlier work
EL4Cter* peptide = assay type: binding; details: EL4Cter* 35 µM; increasing concentration of Z^x95; mean of three independent measurements
PhoA = assay type: cell-based, E. coli
FasC^His = assay type: cell-based, M. smegmatis
MtPMT [2] = assay type: cell-based; details: MtPMT mutant expressed in M. smegmatis ΔMsPMT; ELLA, relative to WT (100%) and No PMT (0%)

Molecule	FasC^His mannosylation / MtPMT enzymatic activity (ConA binding) (MtPMT [2])	other results
Cc1cc(-n2c(C)cc(/C=C/C(=O)N3CCCC3c3cccs3)c2C)no1 (stereo not shown) [Z^x95, (2E)-3-[2,5-dimethyl-1-(5-methyl-1,2-oxazol-3-yl)-1H-pyrrol-3-yl]-1-[2-(thiophen-2-yl)pyrrolidin-1-yl]prop-2-en-1-one]	–	effect on FasC mannosylation in vivo (MtPMT [1]): reduce FasC mannosylation in vivo; effect on thermal denaturation curves of EL4Cter* (EL4Cter* peptide): dose-dependent deviation of EL4Cter* thermal denaturation curves
B1	–	phosphatase activity on solid medium (chromogenic substrate) (PhoA): remained uncolored; number of FasC glycosylation states (FasC^His): 18
B2	failed to restore Fasc^His mannosylation	–
B3	only partially impacted FasC mannosylation	–
B4	–	reduction (drop) of apparent FasC mannosylation level (MtPMT [2]): 73%
B5	slightly restored mannosylation activity	–
B6	absence of Fasc^His mannosylation	reduction of expression of mutated enzyme (PhoA activity of PhoA fusion) (PhoA): about 50%
B7	almost half of the FasC mannosylation level remained	–
B8	complete abolition of the mannosyl transferase activity	–
B9	completely abolished FasC mannosylation	–
B10	complete lack of mannosylation	–
B11	completely abolished FasC mannosylation	–
B12	only marginally restored enzyme activity	–
